Test results taken from US20140294846.
Read-outs that look alike come from different tables or passages of the source.

B1: full-length mouse ADAMTS-1, v5-epitope tagged (wild type) (protein)
chain: ARGAHGRPTEEDEELVLPSLERAPGHDSTTTRLRLDAFGQQLHLKLQPDSGFLAPGFTLQTVGRSPGSEAQHLDPTGDLAHCFYSGTVNGDPGSAAALSLCEGVRGAFYLQGEEFFIQPAPGVATERLAPAVPEEESSARPQFHILRRRRRGSGGAKCGVMDDETLPTSDSRPESQNTRNQWPVRDPTPQDAGKPSGPGSIRKKRFVSSPRYVETMLVADQSMADFHGSGLKHYLLTLFSVAARFYKHPSIRNSISLVVVKILVIYEEQKGPEVTSNAALTLRNFCSWQKQHNSPSDRDPEHYDTAILFTRQDLCGSHTCDTLGMADVGTVCDPSRSCSVIEDDGLQAAFTTAHELGHVFNMPHDDAKHCASLNGVSGDSHLMASMLSSLDHSQPWSPCSAYMVTSFLDNGHGECLMDKPQNPIKLPSDLPGTLYDANRQCQFTFGEESKHCPDAASTCTTLWCTGTSGGLLVCQTKHFPWADGTSCGEGKWCVSGKCVNKTDMKHFATPVHGSWGPWGPWGDCSRTCGGGVQYTMRECDNPVPKNGGKYCEGKRVRYRSCNIEDCPDNNGKTFREEQCEAHNEFSKASFGNEPTVEWTPKYAGVSPKDRCKLTCEAKGIGYFFVLQPKVVDGTPCSPDSTSVCVQGQCVKAGCDRIIDSKKKFDKCGVCGGNGSTCKKMSGIVTSTRPGYHDIVTIPAGATNIEVKHRNQRGSRNNGSFLAIRAADGTYILNGNFTLSTLEQDLTYKGTVLRYSGSSAALERIRSFSPLKEPLTIQVLMVGHALRPKIKFTYFMKKKTESFNAIPTFSEWVIEEWGECSKTCGSGWQRRVVQCRDINGHPASECAKEVKPASTRPCADLPCPHWQVGDWSPCSKTCGKGYKKRTLKCVSHDGGVLSNESCDPLKKPKHYIDFCTLTQCS

How the values were obtained:
[1] = test system: versican in the ECM materials deposited by TA3 transfectants
[2] = molecular target: versican in the ECM materials deposited by TA3 transfectants; remark: listed apart in the source

Row | Molecule | degradation of versican in ECM of TA3 transfectants (Western blot, anti-DP antibody) [1] | auto-proteolytic cleavage of purified ADAMTS-1 in vitro (Western blot, anti-v5) (P97857) | degradation of versican in ECM of TA3 transfectants (Western blot, anti-DP antibody) [2]
1 | ADAMTS-1E/Q, protease-dead mutant of mouse ADAMTS-1 (E386 to Q), v5-epitope tagged | expression of ADAMTS-1E/Q but not ADAMTS-1NTF, ADAMTS-1CTF inhibits the degradation |  | 
2 | B1 |  | ADAMTS-1 was auto-proteolytically cleaved to release v5-epitope tagged C-terminal cleavage fragments | increased expression of exogenous ADAMTS-1 but not ADAMTS-1minusTSP-1 on top of the endogenous ADAMTS-1 promotes degradation of versican
